# What was measured:
# [1] = Photo-isomerization kinetics (trans/cis) followed by absorbance under illumination; format: physicochemical; settings: 9.5 mW cm−2, 100% DMSO
# Text: Next, we evaluated for all monomers and dimers the trans‐cis isomerization reactions under various wavelengths of illumination. Illuminating the ChTx‐Ah^14‐Az1 monomer at λ = 365 nm at 9.5 mW cm^−2, to favor the cis configuration, yielded a significant time‐dependent change in the absorbance properties of the peptide, characterized by a decrease of the absorbance band maximum centered at 340 nm (Figure 4a).
# [2] = Thermal stability of the cis isomer in the dark; settings: Figure S3
# [3] = biological target: mouse Kv1.2 channel (mouse) (UniProt P63141)
# mouse Kv1.2 channel (mouse), sequence (P63141 whole entry): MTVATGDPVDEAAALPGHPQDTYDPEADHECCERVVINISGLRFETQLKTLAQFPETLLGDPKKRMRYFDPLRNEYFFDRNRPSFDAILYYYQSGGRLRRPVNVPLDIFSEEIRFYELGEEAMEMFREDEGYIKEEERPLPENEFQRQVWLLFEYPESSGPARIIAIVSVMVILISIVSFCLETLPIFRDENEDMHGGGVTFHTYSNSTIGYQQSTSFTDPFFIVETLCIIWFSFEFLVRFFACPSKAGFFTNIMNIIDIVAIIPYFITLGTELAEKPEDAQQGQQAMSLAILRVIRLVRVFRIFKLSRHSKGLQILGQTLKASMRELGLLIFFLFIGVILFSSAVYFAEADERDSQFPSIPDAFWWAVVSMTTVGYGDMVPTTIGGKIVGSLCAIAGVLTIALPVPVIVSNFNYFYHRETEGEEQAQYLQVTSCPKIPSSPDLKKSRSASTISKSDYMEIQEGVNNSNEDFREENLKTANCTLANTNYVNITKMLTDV
# [4] = biological target: mouse Kv1.2 channel (mouse) (UniProt P63141); remark: listed apart in the source
# charybdotoxin, sequence (P13487 23-59): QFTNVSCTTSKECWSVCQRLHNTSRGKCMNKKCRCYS
# ChTx‐Ah^12, sequence (P13487 whole entry, looked up): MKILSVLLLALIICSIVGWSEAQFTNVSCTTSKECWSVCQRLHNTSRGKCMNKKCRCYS
# ChTx‐Ah^9, sequence (P13487 whole entry, looked up): as above
Molecule,"IC50 of inhibition of K+ current, L929 cells stably overexpressing mouse Kv1.2, automated patch-clamp [3] [nM]","percent block of Kv1.2 current at 10 nM peptide, patch-clamp [4] [%]",further results
"C#CCNC(=O)c1ccc(/N=N/c2ccc(C(=O)NCC#C)cc2)cc1 [Az1, (E)‐4,4′‐(diazene‐1,2‐diyl)bis(N‐(prop‐2‐yn‐1‐yl)benzamide)]",,,Time at which formation of the cis isomer saturates ([1]; irradiation at 340 nm): 300 s; Time for recovery of trans-enriched compound on reverse-switching ([1]; irradiation at 435 nm): ≈ 60 s; Thermal stability of the cis isomer [2]: remarkably stable
ChTx‐Ah^9 (from UniProt P13487 23-59) (peptide),6.3,,
ChTx‐Ah^12 (from UniProt P13487 23-59) (peptide),1.2,,
ChTx‐Ah^14 (from UniProt P13487 23-59) (peptide),9.8,52,
ChTx‐Ah^19 (from UniProt P13487 23-59) (peptide),11.5,,
charybdotoxin (from UniProt P13487 23-59) (peptide),5,62.2,

# From paper PMC12051786, “Photoisomerization of Azobenzene‐Extended Charybdotoxin for the Optical Control of Kv1.2 Potassium Channel Activity” (Angewandte Chemie (International Ed. in English), 2025)
